Series [1] concerns the target in vitro isoaspartyl-converted recombinant HuD N-terminal fragment (amino acids 1-117, wildtype) (UniProt P26378).
Series [2] has as its target HuD RRM1 lacking the N-terminal 36 amino acids (37-117 aa) (UniProt P26378).
For series [3], the target named is native recombinant HuD N-terminal fragment (amino acids 1-117, wildtype, day 0, not converted) (UniProt P26378).
In series [4] the test system is synapsin (isoaspartyl-converted, positive control).
The target in series [5] is HuD N-terminal fragment (1-117) in which the 8 N and D residues in the 36-amino acid flexible region were mutated to Q and E (UniProt P26378).
Chain of HuD N-terminal fragment (1-117) in which the 8 N and D residues in the 36-amino acid flexible region were mutated to Q and E (P26378 other isoform, or with tags, fused parts or gaps, change not shown): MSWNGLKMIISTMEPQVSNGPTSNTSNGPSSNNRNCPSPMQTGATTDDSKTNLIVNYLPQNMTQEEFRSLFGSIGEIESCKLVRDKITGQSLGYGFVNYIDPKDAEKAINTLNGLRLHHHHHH

Chain of in vitro isoaspartyl-converted recombinant HuD N-terminal fragment (amino acids 1-117, wildtype) (P26378 whole entry, looked up, the tested form may be a part): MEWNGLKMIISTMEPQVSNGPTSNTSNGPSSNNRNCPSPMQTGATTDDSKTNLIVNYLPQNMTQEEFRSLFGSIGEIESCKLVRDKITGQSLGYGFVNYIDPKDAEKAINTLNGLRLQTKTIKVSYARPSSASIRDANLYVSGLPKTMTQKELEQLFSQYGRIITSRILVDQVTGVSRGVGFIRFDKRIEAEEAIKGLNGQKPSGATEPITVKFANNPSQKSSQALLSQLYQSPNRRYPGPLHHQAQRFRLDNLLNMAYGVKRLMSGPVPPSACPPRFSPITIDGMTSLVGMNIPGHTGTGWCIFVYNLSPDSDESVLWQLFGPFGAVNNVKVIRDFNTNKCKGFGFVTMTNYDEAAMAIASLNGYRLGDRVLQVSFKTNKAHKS
Chain of HuD RRM1 lacking the N-terminal 36 amino acids (37-117 aa) (P26378 37-117): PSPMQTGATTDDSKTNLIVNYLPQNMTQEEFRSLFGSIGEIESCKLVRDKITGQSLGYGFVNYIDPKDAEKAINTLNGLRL
Chain of native recombinant HuD N-terminal fragment (amino acids 1-117, wildtype, day 0, not converted) (P26378 other isoform, or with tags, fused parts or gaps): as the sequence (P26378 other isoform, or with tags, fused parts or gaps, change not shown) above

Regarding “recombinant rat protein-L-isoaspartyl methyltransferase (PIMT)”, the “PIMT-catalyzed [3H]-methyl incorporation from [3H]-AdoMet (autoradiography)” value in series [1] is “followed by a strong increase in PIMT-mediated methylation over the seven day incubation”; in series [3], “HuD exhibited no reactivity at Day 0”; in series [4], “Isoaspartyl-converted synapsin and HuD were visualized by methylation with [3H]-AdoMet by PIMT”. Moreover, the “on-blot methylation with [3H]-AdoMet by PIMT” value in series [2] is “the RRM1 domain alone shows no signal above background when incubated under isoaspartylation conditions and then subjected to PIMT modification”; in series [5] it was “Only the Day 3 and Day 7 samples from the original 117 amino acid fragment show above background labeling”.

The record behind these values is US20150232539.
